From patent publication US20210261685A1 (Alector, published 2021) come the findings set out here.

The labels stand for the following.
T1: human MerTK extracellular domain (ECD), recombinant (human, UniProt Q12866 21-505)
T1 construct: also called huMerTK; not shown: polyHis tag or TEVS/Thrombin/murine IgG2a Fc tag
T1 sequence: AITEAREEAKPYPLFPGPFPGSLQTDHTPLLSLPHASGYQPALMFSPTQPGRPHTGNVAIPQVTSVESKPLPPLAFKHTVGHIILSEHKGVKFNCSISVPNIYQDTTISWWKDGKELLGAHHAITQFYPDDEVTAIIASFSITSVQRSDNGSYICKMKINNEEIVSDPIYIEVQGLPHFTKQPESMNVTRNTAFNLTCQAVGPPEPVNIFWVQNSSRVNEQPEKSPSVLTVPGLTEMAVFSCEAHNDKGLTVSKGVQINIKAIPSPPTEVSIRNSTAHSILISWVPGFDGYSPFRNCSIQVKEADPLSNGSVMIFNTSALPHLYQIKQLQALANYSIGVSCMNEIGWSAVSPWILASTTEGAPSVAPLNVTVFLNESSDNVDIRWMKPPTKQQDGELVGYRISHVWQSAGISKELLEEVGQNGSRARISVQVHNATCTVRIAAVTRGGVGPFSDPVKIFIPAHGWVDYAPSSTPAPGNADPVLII

T2: cyno MerTK extracellular domain (ECD), recombinant (cynomolgus monkey, UniProt Q12866 21-505 (human entry))
T2 construct: also called cynomolgus MerTK; not shown: polyHis tag or TEVS/Thrombin/murine IgG2a Fc tag
T2 chain: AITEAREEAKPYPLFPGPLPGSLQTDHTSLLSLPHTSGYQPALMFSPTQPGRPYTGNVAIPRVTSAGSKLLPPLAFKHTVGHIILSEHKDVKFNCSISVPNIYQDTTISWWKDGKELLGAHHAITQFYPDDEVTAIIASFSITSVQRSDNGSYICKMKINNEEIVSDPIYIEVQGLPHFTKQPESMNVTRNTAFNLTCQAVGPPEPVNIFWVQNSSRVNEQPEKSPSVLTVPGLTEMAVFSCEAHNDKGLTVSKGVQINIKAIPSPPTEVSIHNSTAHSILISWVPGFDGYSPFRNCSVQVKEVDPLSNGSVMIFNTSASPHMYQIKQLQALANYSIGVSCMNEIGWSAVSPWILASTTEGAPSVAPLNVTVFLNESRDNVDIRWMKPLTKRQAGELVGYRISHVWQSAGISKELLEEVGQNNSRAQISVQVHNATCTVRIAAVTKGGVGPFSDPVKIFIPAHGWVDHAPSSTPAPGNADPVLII

T3: murine MerTK extracellular domain (ECD), recombinant (mouse, UniProt Q60805 19-497)
T3 construct: also called moMerTK; mouse MerTK; not shown: polyHis tag or TEVS/Thrombin/murine IgG2a Fc tag
T3 sequence: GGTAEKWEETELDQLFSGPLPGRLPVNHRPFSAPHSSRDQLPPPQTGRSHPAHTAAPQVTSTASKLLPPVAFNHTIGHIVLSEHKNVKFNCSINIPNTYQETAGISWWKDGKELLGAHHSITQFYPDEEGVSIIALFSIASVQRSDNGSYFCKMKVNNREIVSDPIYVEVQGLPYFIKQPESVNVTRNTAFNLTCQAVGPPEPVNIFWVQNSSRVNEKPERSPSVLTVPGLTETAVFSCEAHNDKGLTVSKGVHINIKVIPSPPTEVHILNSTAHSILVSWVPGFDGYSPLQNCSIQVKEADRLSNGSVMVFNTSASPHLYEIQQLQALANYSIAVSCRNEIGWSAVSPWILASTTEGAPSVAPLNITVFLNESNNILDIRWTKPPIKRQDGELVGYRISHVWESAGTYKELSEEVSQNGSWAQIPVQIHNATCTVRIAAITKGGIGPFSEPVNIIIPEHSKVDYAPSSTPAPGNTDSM

B1: MTK-29.8 (antibody, human IgG1, V domains shown)
VH: QVQLVQSGSELKKPGASVKVSCKASGYIFTTYGLSWVRQAPGQGLEWMGWINTYSGVPTYTDDFKGRFVFSLDTNVSTAYLQISSLKAEDTAVYYCARYTNYGVFDYWGQGTLVTVSS
VL: DIQLTQSPSFLSASVGDRVTITCRASSSVGYMHWYQQKPGKAPKLLIYATSNLAQGVPSRFSGSGSGTEFTLTISSLQPEDFATYYCQQWGSLPFTFGQGTKLEIK
B2: MTK-29.7 (antibody, human IgG1, V domains shown)
VH: B1 VH with G26S, I28T, L34M, T59S, G66A, N75S
VL: B1 VL
B3: MTK-29.5 (antibody, human IgG1, V domains shown)
VH: B1 VH with T31S, N75S, S85P
VL: B1 VL
B4: MTK-29.9 (antibody, human IgG1, V domains shown)
VH: B1 VH with T31S, N75S
VL: B1 VL with E69G
B5: MTK-15.7 (antibody, human IgG1, V domains shown)
VH: QVQLVQSGSELKKPGASVKVSCKASGYTFTNYGVHWVRQAPGQGLEWMGWINTYTGEPTYAQGFTGRFVFSLDTSVSTAYLQISSLKAEDTAVYYCVRGNRYAYMDYWGQGTLVTVSS
VL: EIVLTQSPATLSLSPGERATLSCRASSGVSYMHWYQQKPGQAPRPLIYATSNLASGIPARFSGSGSGTSYTLTISSLEPEDFAVYYCQQWSSNPRTFGGGTKVEIK
B6: MTK-15.3 (antibody, human IgG1, V domains shown)
VH: B5 VH with V97A
VL: B5 VL with G28H
B7: MTK-15.9 (antibody, human IgG1, V domains shown)
VH: B5 VH with V97A, N100Y
VL: B5 VL with G28S, V29T
B8: MTK-15.2 (antibody, human IgG1, V domains shown)
VH: B5 VH with I51G, V97A
VL: B5 VL with G28S
B9: MTK-15.11 (antibody, human IgG1, V domains shown)
VH: B5 VH with T30A, T55E, V97A, M105Q
VL: B5 VL with G28S
B10: MTK-15.10 (antibody, human IgG1, V domains shown)
VH: B5 VH with T30A, T55Q, V97T, N100A
VL: B5 VL with G28S, S30G
B11: MTK-15.5 (antibody, human IgG1, V domains shown)
VH: B5 VH with V97T, N100T
VL: B5 VL with G28S, S30G
B12: MTK-15.6 (antibody, human IgG1, V domains shown)
VH: B5 VH with T59Y, V97A
VL: B5 VL with G28S, S30G
B13: MTK-15.12 (antibody, human IgG1, V domains shown)
VH: B5 VH with T30A, T55Q, V97A, N100V
VL: B5 VL with G28S, S30G, L77P
B14: MTK-15.13 (antibody, human IgG1, V domains shown)
VH: B5 VH with V97A, M105E
VL: B5 VL with G28S, S30Q
B15: MTK-15.1 (antibody, human IgG1, V domains shown)
VH: B5 VH with V97A, M105Q
VL: B5 VL with G28S
B16: MTK-15.8 (antibody, human IgG1, V domains shown)
VH: B5 VH with V97A, N100V
VL: B5 VL with G28S, S30G, L77P
B17: MTK-16.1 (antibody, V domains shown)
VH: QVQLVQSGSELKKPGASVKVSCKASGYTFTNHGMNWVRQAPGQGLEWMGWINTYTGEPTYAQGFTGRFVFSLDTSVSTAYLQISSLKAEDTAVYYCARKGVTAARYFDYWGQGTLVTVSS
VL: DIQMTQSPSSLSASVGDRVTITCKASQNVRTAVAWYQQKPGKAPKRLIYLASNRHTGVPSRFSGSGSGTEFTLTISNLQPEDFATYYCLQHWNYPLTFGGGTKVEIK
B18: MTK-16.2 (antibody, V domains shown)
VH: B17 VH with Q62D, G63D, T65K
VL: B17 VL with K24R, V104L
B19: MTK-15.4 (antibody, human IgG1, V domains shown)
VH: B5 VH with V97A
VL: B5 VL with G28S, S30G

Where a chain is given by its changes, count along the chain named.

The first experiment concerns the target T1, human MerTK extracellular domain (ECD), …. Put plainly: SPR, Carterra LSA, antibody immobilised. Here is the method:
(§1) Binding kinetics of humanized and affinity-matured anti-MerTK antibodies of the present disclosure to human, murine, and cynomolgus MerTK proteins were evaluated as follows. Briefly, anti-MerTK antibodies were prepared by diluting to 10 μg/ml in 10 mM Acetate, pH 4.25 (Carterra, Salt Lake City, Utah), at 300 μl/well. A HC200M sensor chip (Carterra) was activated using the single channel flow cell with a 7-minute injection of a 1:1:1 mixture of 100 mM MES pH 5.5, 100 mM sulfo-NHS, 400 mM EDC (all reconstituted in MES pH 5.5; 100 μl of each mixed in vial immediately before running assay). After switching to the multi-channel array flow cell, the antibodies were injected over the activated chip in a 96-spot array for 15 minutes. The remaining unconjugated active groups on the chip were then blocked by injecting 1M Ethanolamine pH 8.5 (Carterra) for 7 minutes using the single channel flow cell.
(§2) Estimates of affinity were generated by injecting each analyte over the entire antibody array using the single channel flow cell. MerTK analytes were diluted to 33.3, 100, and 300 nM in running buffer, and injected in serial from lowest to highest concentration without regeneration. Two buffer blanks were run between each series (one species per series). Data were processed and analyzed using NextGenKIT high-throughput kinetics analysis software (Carterra). In these experiments, the anti-MerTK antibodies were human IgG1 isotype containing the Fc variant LALAPS.
(§3) The equilibrium dissociation constants (KD) were then calculated from the fitted association and dissociation rate constants (k-on and k-off) for anti-MerTK antibodies of the present disclosure.
In the case of B1, the Kd turned out to be 23 nM.
Consider B2, for which the Kd was 3.6 nM.
Still for that read-out and setting: the result for B3 reads 4.4 nM.
On the same count and under the same terms, the result for B4 reads 5.7 nM.
For the molecule B5, the Kd was determined as 0.1 nM.
The same measure, in the same setting: the figure for B6 is 21.5 nM; for B7 it is 10 nM; for B8 it is 21.5 nM.
On the same count and under the same terms, the figure for B9 is 12.5 nM; for B10 it is 3.3 nM; for B11 it is 0.1 nM.
Still for that read-out and setting: the figure for B12 is 1 nM.
In the case of B13, the Kd is 17.5 nM.
Still for that read-out and setting: the result for B14 reads 2.3 nM; that for B15, 8.3 nM; that for B16, 4.9 nM.
As to B17, the Kd was 86 nM.
Consider B18, for which the Kd was 80 nM.

Another experiment has as its target T2, cyno MerTK extracellular domain (ECD), …. Put plainly: SPR, Carterra LSA, antibody immobilised. Here is the method: as §1, §2, §3
Take B1: the Kd came to 22.5 nM.
On the same count and under the same terms, the figure for B2 is 3.2 nM; for B3 it is 4.4 nM; for B4 it is 5.8 nM.
In the case of B5, the Kd came out at 0.3 nM.
As to B6, the Kd came out at 23 nM.
The same measure, in the same setting: the figure for B7 is 11.5 nM; for B8 it is 21.5 nM; for B9 it is 12.5 nM.
For B10, the Kd stood at 3.3 nM.
On the same count and under the same terms, the result for B11 reads 0.8 nM.
Still for that read-out and setting: the result for B12 reads 1.5 nM.
Take B13: the Kd was 18 nM.
The same measure, in the same setting: the figure for B14 is 2.8 nM.
Still for that read-out and setting: the figure for B15 is 8 nM; for B16 it is 5 nM; for B17 it is 170 nM.
Still for that read-out and setting: the figure for B18 is 160 nM.

The target of the next experiment is T3, murine MerTK extracellular domain …. In words: SPR, Carterra LSA, antibody immobilised. Here is the method: as §1, §2, §3
Turning to B1, the Kd is 310 nM.
On the same count and under the same terms, the figure for B2 is 95 nM; for B3 it is 135 nM; for B4 it is 140 nM.
For the molecule B19, the binding result is given as “no binding (tested: 300 nM)”.
For B5, the Kd was found to be 705 nM.
As for B6, the binding result is “no binding (tested: 300 nM)”.
On to B7, for which the Kd was 850 nM.
Regarding B8, the binding result was “no binding (tested: 300 nM)”.
B9: the Kd came to 140 nM.
On the same count and under the same terms, the figure for B10 is 2800 nM; for B11 it is 690 nM.
Regarding B13, the Kd amounted to 114 nM.
In the case of B14, the Kd stood at 130 nM.
As to B16, the binding result is “no binding (tested: 300 nM)”.
Take B17: the binding result is “no binding (tested: 300 nM)”.
On the same count and under the same terms, the result for B18 reads “no binding (tested: 300 nM)”.
